{"source": "the supplement of paper PMC12042874", "note": "± gives the uncertainty stated by the source.", "data": [{"assay": "amyloid nucleation score (Sup35N fusion, yeast selection) (log enrichment); library NNK3; higher = more nucleation; inactive = no reads after selection", "method_in_brief": "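The nucleation score, computed with DiMSum, is the log enrichment of output over input reads, centred on the mode score of non-aggregating sequences. Sequences with under 100 input reads were dropped. Reads were generated by Illumina sequencing of plasmid inserts from psi-negative yeast with Sup35N fused to peptides of 20 random codons, induced with 100 μM copper sulfate for 24 hours and grown 7 days at 30°C on medium lacking adenine and uracil.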", "values": [{"substance": "NVYMRSYKIRSCMTFRTLAL", "amyloid nucleation score": "inactive"}, {"substance": "NWDWADE", "amyloid nucleation score": "inactive"}, {"substance": "NWIYYTMWSL", "amyloid nucleation score": "0.581 ± 0.17"}, {"substance": "NWLDWLGRPPRDIGAWNGSS", "amyloid nucleation score": "inactive"}, {"substance": "NWNIGPRKLCKWRCR", "amyloid nucleation score": "inactive"}, {"substance": "NWTQSIFVGGQRDRLVISRT", "amyloid nucleation score": "inactive"}, {"substance": "NWYDSWRVFAQNKDCSLWA", "amyloid nucleation score": "inactive"}, {"substance": "NYEQCNSHSCMIFLFRTDYS", "amyloid nucleation score": "inactive"}, {"substance": "NYFYRPYSEDSVITQMIVVV", "amyloid nucleation score": "inactive"}, {"substance": "NYGFGRVSAFYHQLA", "amyloid nucleation score": "inactive"}, {"substance": "NYGNPRRMVCSEYGWESLCK", "amyloid nucleation score": "inactive"}, {"substance": "NYKRTLEESN", "amyloid nucleation score": "1.17 ± 0.18"}, {"substance": "NYTVLYGNSLSFFRSHLCRV", "amyloid nucleation score": "inactive"}, {"substance": "NYVCGVIAVNVVMNSSNNWR", "amyloid nucleation score": "2.66 ± 0.051"}, {"substance": "NYVVSFYISSNFWYDVVNCD", "amyloid nucleation score": "0.294 ± 0.22"}, {"substance": "NYYINKSMVRSRWFCCLPLW", "amyloid nucleation score": "2.34 ± 0.067"}, {"substance": "PAADHLAKRCSMICSSSFAL", "amyloid nucleation score": "inactive"}, {"substance": "PAGTICGCRHGRLWNGPSRW", "amyloid nucleation score": "inactive"}, {"substance": "PALMDLGYRYVSRNFDL", "amyloid nucleation score": "inactive"}, {"substance": "PAPHRIKRIL", "amyloid nucleation score": "inactive"}, {"substance": "PCFLTNEDFYMKFTRN", "amyloid nucleation score": "inactive"}, {"substance": "PCHHFFFA", "amyloid nucleation score": "inactive"}, {"substance": "PCLYLGIFARTKMHPTNDCM", "amyloid nucleation score": "-0.88 ± 1.1"}, {"substance": "PCPFILFYSEFTWSRY", "amyloid nucleation score": "inactive"}, {"substance": "PDDCVGRSD", "amyloid nucleation score": "inactive"}, {"substance": "PDFNLWRTEMLSYNGWK", "amyloid nucleation score": "inactive"}, {"substance": "PDHEMGSHLLV", "amyloid nucleation score": "inactive"}, {"substance": "PDHSHHCV", "amyloid nucleation score": "inactive"}, {"substance": "PDKWSPGAYVKWWVGTKVQM", "amyloid nucleation score": "inactive"}, {"substance": "PDRCFD", "amyloid nucleation score": "inactive"}, {"substance": "PENDRNMLLVSVIVPRYIAT", "amyloid nucleation score": "inactive"}, {"substance": "PETMCLGAKRFITGRETREL", "amyloid nucleation score": "0.588 ± 0.14"}, {"substance": "PFACAVAKNPHES", "amyloid nucleation score": "inactive"}, {"substance": "PFCVCRLL", "amyloid nucleation score": "inactive"}, {"substance": "PFENHSYVCSGSRYNGTLWE", "amyloid nucleation score": "inactive"}, {"substance": "PFFDFSDINITEPE", "amyloid nucleation score": "-0.306 ± 0.71"}, {"substance": "PFGGRR", "amyloid nucleation score": "0.013 ± 0.47"}, {"substance": "PFGWSVLGTGASGAEIQLVE", "amyloid nucleation score": "inactive"}, {"substance": "PFHRIPISVSLGYAFGTRCS", "amyloid nucleation score": "inactive"}, {"substance": "PFLTTKIVQVAGDLVNMFYE", "amyloid nucleation score": "1.24 ± 0.16"}, {"substance": "PFSSGQSVEYL", "amyloid nucleation score": "inactive"}, {"substance": "PFSYDLRNFNSWQIGNGGLM", "amyloid nucleation score": "inactive"}, {"substance": "PFTTSYPDVQLTMKFNSWRN", "amyloid nucleation score": "1.56 ± 0.13"}, {"substance": "PFVSVSVCTSLKGCSR", "amyloid nucleation score": "1.8 ± 0.1"}, {"substance": "PGHFLECRKW", "amyloid nucleation score": "-0.096 ± 0.66"}, {"substance": "PGMISSQGSYTFRAWAVSLR", "amyloid nucleation score": "inactive"}, {"substance": "PGRMRVVTVMKMWLTALSLK", "amyloid nucleation score": "inactive"}, {"substance": "PGSASYSLVRGQDYYLTIYC", "amyloid nucleation score": "inactive"}, {"substance": "PGSDWDMLIMKGMKKRYLDY", "amyloid nucleation score": "inactive"}, {"substance": "PGSYGHGGWNTEFGCQVAIW", "amyloid nucleation score": "-0.593 ± 1.9"}, {"substance": "PGTIYVGCRLLIYGTNTADL", "amyloid nucleation score": "inactive"}, {"substance": "PHCVWDFLVRYGMDENRVKY", "amyloid nucleation score": "inactive"}, {"substance": "PHHSRYAFYGNPTLAI", "amyloid nucleation score": "inactive"}, {"substance": "PIAHFM", "amyloid nucleation score": "inactive"}, {"substance": "PIMAWIWWRASDPMQKRLVG", "amyloid nucleation score": "inactive"}, {"substance": "PINETRSEESLVGSRGM", "amyloid nucleation score": "inactive"}, {"substance": "PITDFTSNISNSRDPLQVRG", "amyloid nucleation score": "inactive"}, {"substance": "PKCPCTWSRTYCVVLWLPRR", "amyloid nucleation score": "inactive"}, {"substance": "PKLSRSYVLSMMVTWRNSKV", "amyloid nucleation score": "inactive"}, {"substance": "PLAFWTCCYCLTWNLRLSWQ", "amyloid nucleation score": "1.6 ± 0.059"}, {"substance": "PLHSWKQCALRRVSSNTSSG", "amyloid nucleation score": "1.75 ± 0.093"}, {"substance": "PLKGDTVSYCGV", "amyloid nucleation score": "inactive"}, {"substance": "PLKTLFCSVLSCVIFLYLLM", "amyloid nucleation score": "inactive"}, {"substance": "PLNMSRCTLALTLFVISFGW", "amyloid nucleation score": "inactive"}, {"substance": "PLVDPLGELYAATFCSGEYC", "amyloid nucleation score": "inactive"}, {"substance": "PLWAYKYVPGFYRVFKVCLM", "amyloid nucleation score": "inactive"}, {"substance": "PLWSRCLYRLSAGGACSVWK", "amyloid nucleation score": "inactive"}, {"substance": "PMHAIIKLYM", "amyloid nucleation score": "inactive"}, {"substance": "PNRVGAVPGG", "amyloid nucleation score": "inactive"}, {"substance": "PPCWLYDFVTNVNNWWYEHC", "amyloid nucleation score": "inactive"}, {"substance": "PPGLGYSMVFYSSVDMHMLS", "amyloid nucleation score": "inactive"}, {"substance": "PPRSSLFTFNIFKYNNLYNA", "amyloid nucleation score": "2.72 ± 0.066"}, {"substance": "PQADLVRFAMCRRAMNLVPW", "amyloid nucleation score": "inactive"}, {"substance": "PQLCESLELSEKRRTEDLVG", "amyloid nucleation score": "inactive"}, {"substance": "PQLLVSYYL", "amyloid nucleation score": "inactive"}, {"substance": "PQRWLSPSYSRIVRM", "amyloid nucleation score": "1.39 ± 0.14"}, {"substance": "PRAMLPDWSSALVWWLN", "amyloid nucleation score": "inactive"}, {"substance": "PRGIDG", "amyloid nucleation score": "inactive"}, {"substance": "PRHWFREFMGMVMI", "amyloid nucleation score": "0.317 ± 0.51"}, {"substance": "PRIFLSR", "amyloid nucleation score": "inactive"}, {"substance": "PRLHRECNEGEVGL", "amyloid nucleation score": "0.206 ± 0.81"}, {"substance": "PRLRHVICHGRFWNPMIQVG", "amyloid nucleation score": "0.971 ± 0.19"}, {"substance": "PRLSAFVLRNYLRPKGYGGA", "amyloid nucleation score": "inactive"}, {"substance": "PRRTNKVARGGRHARVRKVE", "amyloid nucleation score": "inactive"}, {"substance": "PRVIHWSLALNSSHCNFVFF", "amyloid nucleation score": "2.67 ± 0.073"}, {"substance": "PSCMSDCISIIYS", "amyloid nucleation score": "inactive"}, {"substance": "PSFGDEDTYNRDLALTLMDC", "amyloid nucleation score": "inactive"}, {"substance": "PSPLDSRLEHYRMDSTCRVV", "amyloid nucleation score": "inactive"}, {"substance": "PSSSYPKSLRINMAFSFLMC", "amyloid nucleation score": "0.49 ± 0.53"}, {"substance": "PSTVTFRWFIVVSPLRHWFA", "amyloid nucleation score": "inactive"}, {"substance": "PSVWFFSTETFMVRCPADC", "amyloid nucleation score": "0.549 ± 0.33"}, {"substance": "PSYLKTFRDVLMTVSMYFVC", "amyloid nucleation score": "inactive"}, {"substance": "PTAESPLMPFNA", "amyloid nucleation score": "-0.478 ± 0.69"}, {"substance": "PTAFWGFGF", "amyloid nucleation score": "inactive"}, {"substance": "PTHILPYLVD", "amyloid nucleation score": "inactive"}, {"substance": "PTNFD", "amyloid nucleation score": "inactive"}, {"substance": "PVAMAYAVSSVVDMASN", "amyloid nucleation score": "inactive"}, {"substance": "PVFFM", "amyloid nucleation score": "inactive"}, {"substance": "PVGHSSMSLYRGR", "amyloid nucleation score": "inactive"}, {"substance": "PVGKMDLRIDKNSWSYLVLD", "amyloid nucleation score": "inactive"}, {"substance": "PVGVLYTSANGTDFVNIVRD", "amyloid nucleation score": "inactive"}, {"substance": "PVHSFNLAIYMRLFHVWPVF", "amyloid nucleation score": "inactive"}, {"substance": "PVISMHIVVLCGKQKKTMSP", "amyloid nucleation score": "0.594 ± 0.23"}, {"substance": "PVKLC", "amyloid nucleation score": "inactive"}, {"substance": "PVLEYKVL", "amyloid nucleation score": "inactive"}, {"substance": "PVLPQGLRVLYDSVSVTSHL", "amyloid nucleation score": "inactive"}, {"substance": "PVMSS", "amyloid nucleation score": "inactive"}, {"substance": "PVNIVCTVNSLSGSYED", "amyloid nucleation score": "inactive"}, {"substance": "PVNNIYGRLPGLLKLEKVSS", "amyloid nucleation score": "inactive"}, {"substance": "PVSAH", "amyloid nucleation score": "1.08 ± 0.17"}, {"substance": "PVVHFLWSLYRNLVCVDGKV", "amyloid nucleation score": "inactive"}, {"substance": "PWCVKIHRWVLYWSYKLSIS", "amyloid nucleation score": "inactive"}, {"substance": "PWFTMVRIGEMVLYLRMQRR", "amyloid nucleation score": "inactive"}, {"substance": "PWGEILINGR", "amyloid nucleation score": "inactive"}, {"substance": "PYQDIMNSQESGGDE", "amyloid nucleation score": "inactive"}, {"substance": "PYVECSWEAQG", "amyloid nucleation score": "inactive"}, {"substance": "QAIGIRICSK", "amyloid nucleation score": "inactive"}, {"substance": "QASIVSTG", "amyloid nucleation score": "-0.926 ± 2.4"}, {"substance": "QDIELMFSFFDGKAFSSYHL", "amyloid nucleation score": "-0.787 ± 0.98"}]}]}
